In article PMC10786891, “Massively parallel profiling of RNA-targeting CRISPR-Cas13d”:

T1: EsCas13d, nuclease-dead (Eubacterium siraeum, UniProt B0MS50, R295A;H300A;R849A;H854A)
T1 sequence: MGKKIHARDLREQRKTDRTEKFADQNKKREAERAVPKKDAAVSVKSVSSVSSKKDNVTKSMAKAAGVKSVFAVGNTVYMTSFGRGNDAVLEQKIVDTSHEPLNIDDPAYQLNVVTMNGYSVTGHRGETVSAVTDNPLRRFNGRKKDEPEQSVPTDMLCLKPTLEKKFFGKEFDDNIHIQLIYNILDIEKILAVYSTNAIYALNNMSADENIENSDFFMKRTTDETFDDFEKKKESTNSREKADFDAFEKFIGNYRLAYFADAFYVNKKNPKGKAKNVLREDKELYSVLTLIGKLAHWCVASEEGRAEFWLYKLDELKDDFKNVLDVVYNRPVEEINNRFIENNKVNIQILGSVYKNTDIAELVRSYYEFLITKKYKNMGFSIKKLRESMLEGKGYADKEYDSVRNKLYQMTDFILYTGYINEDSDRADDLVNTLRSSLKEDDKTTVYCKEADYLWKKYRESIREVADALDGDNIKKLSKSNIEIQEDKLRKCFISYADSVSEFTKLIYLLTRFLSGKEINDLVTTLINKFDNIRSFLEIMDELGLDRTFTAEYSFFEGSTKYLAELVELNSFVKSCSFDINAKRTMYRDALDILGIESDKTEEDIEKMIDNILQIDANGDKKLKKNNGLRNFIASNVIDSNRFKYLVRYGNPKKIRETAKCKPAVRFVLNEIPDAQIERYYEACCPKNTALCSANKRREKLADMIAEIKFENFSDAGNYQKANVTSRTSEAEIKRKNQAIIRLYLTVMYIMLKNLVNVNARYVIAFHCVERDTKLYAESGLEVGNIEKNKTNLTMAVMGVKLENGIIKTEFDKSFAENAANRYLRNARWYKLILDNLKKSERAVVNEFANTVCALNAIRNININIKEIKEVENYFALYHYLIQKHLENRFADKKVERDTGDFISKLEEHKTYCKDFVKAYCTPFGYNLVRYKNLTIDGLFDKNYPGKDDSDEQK

B1: target 1 C7A,G17U (mixed)
RNA 1: CACCCGUGCAAAAAUGCAGGGGUCUAAAACUGAGCGGAUAACCUCUCUAUGG
RNA 2: GGGAAUGGAUCCACAUCUACGAAUUCGUACCAUAUAGAGGUUAUACGCUCACCGAGAUCGGAAGAGCACACGU
B2: target 1 A1U,A20U (mixed)
RNA 1: CACCCGUGCAAAAAUGCAGGGGUCUAAAACUGAGCGGAUAACCUCUCUAUGG
RNA 2: GGGAAUGGAUCCACAUCUACGAAUUCGUACCUUAGAGAGGUUAUCCGCUCUCCGAGAUCGGAAGAGCACACGU
B3: target 1 insC 3' of 10,insA 3' of 6 (mixed)
RNA 1: CACCCGUGCAAAAAUGCAGGGGUCUAAAACUGAGCGGAUAACCUCUCUAUGG
RNA 2: GGGAAUGGAUCCACAUCUACGAAUUCGUACCAUAGAGAGGUUCAUCCAGCUCACCGAGAUCGGAAGAGCACACGU
B4: target 1 insC 3' of 13,insC 3' of 13 (mixed)
RNA 1: CACCCGUGCAAAAAUGCAGGGGUCUAAAACUGAGCGGAUAACCUCUCUAUGG
RNA 2: GGGAAUGGAUCCACAUCUACGAAUUCGUACCAUAGAGAGCCGUUAUCCGCUCACCGAGAUCGGAAGAGCACACGU
B5: target 1 U8G,U11A (mixed)
RNA 1: CACCCGUGCAAAAAUGCAGGGGUCUAAAACUGAGCGGAUAACCUCUCUAUGG
RNA 2: GGGAAUGGAUCCACAUCUACGAAUUCGUACCAUAGAGAGGAUAGCCGCUCACCGAGAUCGGAAGAGCACACGU
B6: target 1 insC 3' of 5,insU 3' of 5 (mixed)
RNA 1: CACCCGUGCAAAAAUGCAGGGGUCUAAAACUGAGCGGAUAACCUCUCUAUGG
RNA 2: GGGAAUGGAUCCACAUCUACGAAUUCGUACCAUAGAGAGGUUAUCCGCUCUCACCGAGAUCGGAAGAGCACACGU
B7: target 1 A1U,C2U (mixed)
RNA 1: CACCCGUGCAAAAAUGCAGGGGUCUAAAACUGAGCGGAUAACCUCUCUAUGG
RNA 2: GGGAAUGGAUCCACAUCUACGAAUUCGUACCAUAGAGAGGUUAUCCGCUUUCCGAGAUCGGAAGAGCACACGU
B8: target 1 U11G,G12A (mixed)
RNA 1: CACCCGUGCAAAAAUGCAGGGGUCUAAAACUGAGCGGAUAACCUCUCUAUGG
RNA 2: GGGAAUGGAUCCACAUCUACGAAUUCGUACCAUAGAGAGAGUAUCCGCUCACCGAGAUCGGAAGAGCACACGU
B9: target 1 insU 3' of 17,insG 3' of 16 (mixed)
RNA 1: CACCCGUGCAAAAAUGCAGGGGUCUAAAACUGAGCGGAUAACCUCUCUAUGG
RNA 2: GGGAAUGGAUCCACAUCUACGAAUUCGUACCAUAGUAGGAGGUUAUCCGCUCACCGAGAUCGGAAGAGCACACGU
B10: target 1 C2U,C21U (mixed)
RNA 1: CACCCGUGCAAAAAUGCAGGGGUCUAAAACUGAGCGGAUAACCUCUCUAUGG
RNA 2: GGGAAUGGAUCCACAUCUACGAAUUCGUACUAUAGAGAGGUUAUCCGCUUACCGAGAUCGGAAGAGCACACGU
B11: target 1 U8C,A9C (mixed)
RNA 1: CACCCGUGCAAAAAUGCAGGGGUCUAAAACUGAGCGGAUAACCUCUCUAUGG
RNA 2: GGGAAUGGAUCCACAUCUACGAAUUCGUACCAUAGAGAGGUUCCCCGCUCACCGAGAUCGGAAGAGCACACGU
B12: target 1 A1G,C2U (mixed)
RNA 1: CACCCGUGCAAAAAUGCAGGGGUCUAAAACUGAGCGGAUAACCUCUCUAUGG
RNA 2: GGGAAUGGAUCCACAUCUACGAAUUCGUACCAUAGAGAGGUUAUCCGCUUGCCGAGAUCGGAAGAGCACACGU
B13: target 1 del2,del16 (mixed)
RNA 1: CACCCGUGCAAAAAUGCAGGGGUCUAAAACUGAGCGGAUAACCUCUCUAUGG
RNA 2: GGGAAUGGAUCCACAUCUACGAAUUCGUACCAUAGGAGGUUAUCCGCUACCGAGAUCGGAAGAGCACACGU
B14: target 1 A1G,G15A (mixed)
RNA 1: CACCCGUGCAAAAAUGCAGGGGUCUAAAACUGAGCGGAUAACCUCUCUAUGG
RNA 2: GGGAAUGGAUCCACAUCUACGAAUUCGUACCAUAGAAAGGUUAUCCGCUCGCCGAGAUCGGAAGAGCACACGU
B15: target 1 insA 3' of 19,insU 3' of 17 (mixed)
RNA 1: CACCCGUGCAAAAAUGCAGGGGUCUAAAACUGAGCGGAUAACCUCUCUAUGG
RNA 2: GGGAAUGGAUCCACAUCUACGAAUUCGUACCAUAAGUAGAGGUUAUCCGCUCACCGAGAUCGGAAGAGCACACGU
B16: target 1 insA 3' of 8,insC 3' of 8 (mixed)
RNA 1: CACCCGUGCAAAAAUGCAGGGGUCUAAAACUGAGCGGAUAACCUCUCUAUGG
RNA 2: GGGAAUGGAUCCACAUCUACGAAUUCGUACCAUAGAGAGGUUAUACCCGCUCACCGAGAUCGGAAGAGCACACGU
B17: target 1 U8C,G15A (mixed)
RNA 1: CACCCGUGCAAAAAUGCAGGGGUCUAAAACUGAGCGGAUAACCUCUCUAUGG
RNA 2: GGGAAUGGAUCCACAUCUACGAAUUCGUACCAUAGAAAGGUUACCCGCUCACCGAGAUCGGAAGAGCACACGU
B18: target 1 insG 3' of 16,insC 3' of 8 (mixed)
RNA 1: CACCCGUGCAAAAAUGCAGGGGUCUAAAACUGAGCGGAUAACCUCUCUAUGG
RNA 2: GGGAAUGGAUCCACAUCUACGAAUUCGUACCAUAGAGGAGGUUAUCCCGCUCACCGAGAUCGGAAGAGCACACGU
B19: target 1 insU 3' of 9,insG 3' of 2 (mixed)
RNA 1: CACCCGUGCAAAAAUGCAGGGGUCUAAAACUGAGCGGAUAACCUCUCUAUGG
RNA 2: GGGAAUGGAUCCACAUCUACGAAUUCGUACCAUAGAGAGGUUAUUCCGCUCGACCGAGAUCGGAAGAGCACACGU
B20: target 1 C2U (mixed)
RNA 1: CACCCGUGCAAAAAUGCAGGGGUCUAAAACUGAGCGGAUAACCUCUCUAUGG
RNA 2: GGGAAUGGAUCCACAUCUACGAAUUCGUACCAUAGAGAGGUUAUCCGCUUACCGAGAUCGGAAGAGCACACGU
B21: target 1 G17C,C22U (mixed)
RNA 1: CACCCGUGCAAAAAUGCAGGGGUCUAAAACUGAGCGGAUAACCUCUCUAUGG
RNA 2: GGGAAUGGAUCCACAUCUACGAAUUCGUAUCAUACAGAGGUUAUCCGCUCACCGAGAUCGGAAGAGCACACGU
B22: target 1 C6U,U8A (mixed)
RNA 1: CACCCGUGCAAAAAUGCAGGGGUCUAAAACUGAGCGGAUAACCUCUCUAUGG
RNA 2: GGGAAUGGAUCCACAUCUACGAAUUCGUACCAUAGAGAGGUUAACUGCUCACCGAGAUCGGAAGAGCACACGU
B23: target 1 C2U,U11A (mixed)
RNA 1: CACCCGUGCAAAAAUGCAGGGGUCUAAAACUGAGCGGAUAACCUCUCUAUGG
RNA 2: GGGAAUGGAUCCACAUCUACGAAUUCGUACCAUAGAGAGGAUAUCCGCUUACCGAGAUCGGAAGAGCACACGU
B24: target 1 A1U,G15A (mixed)
RNA 1: CACCCGUGCAAAAAUGCAGGGGUCUAAAACUGAGCGGAUAACCUCUCUAUGG
RNA 2: GGGAAUGGAUCCACAUCUACGAAUUCGUACCAUAGAAAGGUUAUCCGCUCUCCGAGAUCGGAAGAGCACACGU
B25: target 1 insC 3' of 22,insA 3' of 8 (mixed)
RNA 1: CACCCGUGCAAAAAUGCAGGGGUCUAAAACUGAGCGGAUAACCUCUCUAUGG
RNA 2: GGGAAUGGAUCCACAUCUACGAAUUCGUACCCAUAGAGAGGUUAUACCGCUCACCGAGAUCGGAAGAGCACACGU
B26: target 1 insA 3' of 21,insU 3' of 4 (mixed)
RNA 1: CACCCGUGCAAAAAUGCAGGGGUCUAAAACUGAGCGGAUAACCUCUCUAUGG
RNA 2: GGGAAUGGAUCCACAUCUACGAAUUCGUACCAAUAGAGAGGUUAUCCGCUUCACCGAGAUCGGAAGAGCACACGU
B27: target 1 insC 3' of 9,insA 3' of 8 (mixed)
RNA 1: CACCCGUGCAAAAAUGCAGGGGUCUAAAACUGAGCGGAUAACCUCUCUAUGG
RNA 2: GGGAAUGGAUCCACAUCUACGAAUUCGUACCAUAGAGAGGUUACUACCGCUCACCGAGAUCGGAAGAGCACACGU
B28: target 1 G17A,U19A (mixed)
RNA 1: CACCCGUGCAAAAAUGCAGGGGUCUAAAACUGAGCGGAUAACCUCUCUAUGG
RNA 2: GGGAAUGGAUCCACAUCUACGAAUUCGUACCAAAAAGAGGUUAUCCGCUCACCGAGAUCGGAAGAGCACACGU

Each binder was assayed against T1, EsCas13d, nuclease-dead (assay: crRNA (strand 1, pre-loaded); Mg2+; 40 mM Tris-HCl pH 7.5, 150 mM NaCl, 6 mM MgCl2, 1 mM DTT, 0.1% Tween-20, 0.2 mg/ml BSA; 25 C; 10 min per concentration, then washed). Conditions: tags: His6-TwinStrep-SUMO cleaved; N-terminal SNAP kept (SNAP-Surface 488); label: 3' end held by stalled T7 RNA polymerase.

B1 and B2 are within error of each other in Kd: 34 ± 6 nM for the first, 35.1 ± 1.9 nM for the second.

B3 and B4 are within 1.5-fold of each other in Kd: 25.5 ± 2.5 nM for the first, 35 ± 5 nM for the second.

Compared with B5, B6 is 3-fold lower in Kd: 27.6 ± 2.2 nM for the first, 9.3 ± 0.5 nM for the second.

First: B7
Second: B8
The Kd of the first is 2.2-fold higher: 9.6 ± 0.5 nM for the first, 4.27 ± 0.21 nM for the second. The second binds more tightly here.

Going from B9 to B10, the Kd falls from 44 ± 5 nM to 8.2 ± 0.8 nM (5.4-fold).

Going from B11 to B12, the Kd falls from 30.5 ± 2.7 nM to 8.7 ± 0.7 nM (3.5-fold).

Going from B13 to B14, the Kd falls from 82 ± 18 nM to 11.1 ± 0.5 nM (7.4-fold). The second binds more tightly here.

First: B15
Second: B16
The Kd of the first is 2.9-fold higher: about 38 nM for the first, 13.2 ± 0.6 nM for the second.

B17 and B18 are within error of each other in Kd: 26.8 ± 2.1 nM for the first, 24.3 ± 2 nM for the second.

First: B19
Second: B20
The Kd of the first is 2.5-fold higher: 24.6 ± 3.2 nM for the first, 9.7 ± 0.7 nM for the second.

Going from B21 to B22, the Kd falls from 62 ± 11 nM to 15.1 ± 0.5 nM (4.1-fold).

Going from B23 to B24, the Kd falls from 29.5 ± 3.5 nM to 11.2 ± 0.7 nM (2.6-fold).

Compared with B25, B26 is 2.5-fold lower in Kd: 31.4 ± 2.8 nM for the first, 12.5 ± 1 nM for the second.

Compared with B27, B28 is 6.1-fold higher in Kd: 8.8 ± 0.5 nM for the first, 54 ± 8 nM for the second.
